Legend:
[1] = target: (DN-(I+II+III+IV)-NS) antigen (self-produced, expressed in insects) (dengue virus); assay: capture ELISA, antibody at 1000 ng/ml
[2] = target: (DN-(I+II+III+IV)-NS) antigen (self-produced, expressed in insects) (dengue virus); assay: capture ELISA, antibody at 111.111 ng/ml
[3] = target: (DN-(I+II+III+IV)-NS) antigen (self-produced, expressed in insects) (dengue virus); assay: capture ELISA, antibody at 333.333 ng/ml
[4] = target: (DN-(I+II+III+IV)-NS) antigen (self-produced, expressed in insects) (dengue virus); assay: capture ELISA, antibody at 37.037 ng/ml
[5] = target: (DN-(I+II+III+IV)-NS) antigen (self-produced, expressed in insects) (dengue virus); assay: capture ELISA, antibody at 0 ng/ml (blank)
[6] = target: (DN-(I+II+III+IV)-NS) antigen (self-produced, expressed in insects) (dengue virus); assay: capture ELISA, antibody at 12.346 ng/ml
[7] = target: (DN-(I+II+III+IV)-NS) antigen (self-produced, expressed in insects) (dengue virus); assay: capture ELISA, antibody at 4.115 ng/ml
[8] = target: (DN-(I+II+III+IV)-NS) antigen (self-produced, expressed in insects) (dengue virus); assay: capture ELISA, antibody at 1.372 ng/ml
[9] = target: DN quality control product recombinant protein (a recombinant antigen produced by the company itself) (dengue virus); assay: AMO sensor, antibody on sensor, antigen in solution

Binder | Kd [9] | koff [9] | kon [9] | further results
Mutation 3 (antibody, V domains shown) VH: QVQLQQSGAELVRPGTSVKISCKASGYTFTDYWIGWVKQRPGHGLEWIGDMWPGDLYINYQEKFKGKATLTADTSSNTAYMQLSSLTSEDSAVYFCTNFITVGGLDYWGRGTSLTVSS VL: DVVMTQTPLTLSVTIGQPASISCKSSQSLLSSDGRTYLNWLLQRPGQSPKRLIYLVTKVDSGVPDRFTGSGSVTDFTLKISRVESEDLGVYYCWQGTHFFHTFGAGTKLEVKR | – | – | – | OD450 (ref 630) [1]: 0.847 OD; OD450 (ref 630) [2]: 0.056 OD; OD450 (ref 630) [3]: 0.347 OD
recombinant anti-dengue virus NS1 11E2 antibody (WT) (antibody, mouse IgG2a, kappa, V domains shown) VH: QVQLQQSGAELVRPGTSVKISCKASGYSFTDYWIGWVKQRPGHGLEWIGDMVPGDLYINYQEKFKGKATLTADTSSNTAYMQLSSLTSEDSAVYFCTNFITVGGLDYWGRGTSLTVSS VL: DVVMTQTPLTLSVTIGQPASISCKSSNSLLDSDGKTYLNWLLQRPGQSPKRLIYLVTKIDSGVPDRFTGSGSVTDFTLKISRVESEDLGVYYCWWGTHFPHTFGAGTKLEVKR | 58.8 nM | 0.000398 s⁻¹ | 6770 M⁻¹ s⁻¹ | OD450 (ref 630) [4]: 1.66 OD; OD450 (ref 630) [5]: 0.163 OD; OD450 (ref 630) [6]: 0.838 OD; OD450 (ref 630) [1]: 2.32 OD; OD450 (ref 630) [7]: 0.448 OD; OD450 (ref 630) [2]: 2.2 OD; OD450 (ref 630) [8]: 0.297 OD; OD450 (ref 630) [3]: 2.38 OD
Mutation 1-25 (antibody, V domains shown) VH: QVQLQQSGAELVRPGTSVKISCKASGYTFTEYWIGWVKQRPGHGLEWIGDMFPGDVYINYQEKFKGKATLTADTSSNTAYMQLSSLTSEDSAVYFCTNFLTLGGLDYWGRGTSLTVSS VL: DVVMTQTPLTLSVTIGQPASISCKSSNSLLDSDGRTYLNWLLQRPGQSPKRLIYLVSKIDSGVPDRFTGSGSVTDFTLKISRVESEDLGVYYCWYGTHFPHTFGAGTKLEVKR | 6.04 nM | 0.000273 s⁻¹ | 45100 M⁻¹ s⁻¹ | –
WT 1-7 (antibody, V domains shown) VH: QVQLQQSGAELVRPGTSVKISCKASGYSFTEYWIGWVKQRPGHGLEWIGDMVPGDLYINYQEKFKGKATLTADTSSNTAYMQLSSLTSEDSAVYFCTNFITVGGVDYWGRGTSLTVSS VL: DVVMTQTPLTLSVTIGQPASISCKSSQSLLESDGKTYLNWLLQRPGQSPKRLIYLVTKIDSGVPDRFTGSGSVTDFTLKISRVESEDLGVYYCWYGTHFAHTFGAGTKLEVKR | 65.5 nM | 0.000231 s⁻¹ | 3530 M⁻¹ s⁻¹ | –
WT 1-4 (antibody, V domains shown) VH: QVQLQQSGAELVRPGTSVKISCKASGYSFTDYWIGWVKQRPGHGLEWIGDMVPGDIYINYQEKFKGKATLTADTSSNTAYMQLSSLTSEDSAVYFCTNFLTVGGVDYWGRGTSLTVSS VL: DVVMTQTPLTLSVTIGQPASISCKSSQSLLESDGRTYLNWLLQRPGQSPKRLIYLVTKIDSGVPDRFTGSGSVTDFTLKISRVESEDLGVYYCWYGTHFAHTFGAGTKLEVKR | 28 nM | 0.000142 s⁻¹ | 5080 M⁻¹ s⁻¹ | –
WT 1-20 (antibody, V domains shown) VH: QVQLQQSGAELVRPGTSVKISCKASGYSFTDYWIGWVKQRPGHGLEWIGDMVPGDIYINYQEKFKGKATLTADTSSNTAYMQLSSLTSEDSAVYFCTNFITVGGLDYWGRGTSLTVSS VL: DVVMTQTPLTLSVTIGQPASISCKSSQSLLESDGRTYLNWLLQRPGQSPKRLIYLVTKLDSGVPDRFTGSGSVTDFTLKISRVESEDLGVYYCWWGTHFAHTFGAGTKLEVKR | 45.9 nM | 0.000143 s⁻¹ | 3120 M⁻¹ s⁻¹ | –
Mutation 1-19 (antibody, V domains shown) VH: QVQLQQSGAELVRPGTSVKISCKASGYTFTEYWIGWVKQRPGHGLEWIGDMFPGDIYINYNEKFKGKATLTADTSSNTAYMQLSSLTSEDSAVYFCTNFITLGGIDYWGRGTSLTVSS VL: DVVMTQTPLTLSVTIGQPASISCKSSNSLLDSDGRTYLNWLLQRPGQSPKRLIYLVSKIDSGVPDRFTGSGSVTDFTLKISRVESEDLGVYYCWYGTHFPHTFGAGTKLEVKR | 4.72 nM | 0.000279 s⁻¹ | 59200 M⁻¹ s⁻¹ | –
WT 1-30 (antibody, V domains shown) VH: QVQLQQSGAELVRPGTSVKISCKASGYSFTEYWIGWVKQRPGHGLEWIGDMVPGDLYINYNEKFKGKATLTADTSSNTAYMQLSSLTSEDSAVYFCTNFLTVGGVDYWGRGTSLTVSS VL: DVVMTQTPLTLSVTIGQPASISCKSSNSLLESDGKTYLNWLLQRPGQSPKRLIYLVTKIDSGVPDRFTGSGSVTDFTLKISRVESEDLGVYYCWWGTHFAHTFGAGTKLEVKR | 20.4 nM | 0.000149 s⁻¹ | 7280 M⁻¹ s⁻¹ | –
Mutation 1-40 (antibody, V domains shown) VH: QVQLQQSGAELVRPGTSVKISCKASGYTFTDYWIGWVKQRPGHGLEWIGDMFPGDVYINYQEKFKGKATLTADTSSNTAYMQLSSLTSEDSAVYFCTNFITLGGIDYWGRGTSLTVSS VL: DVVMTQTPLTLSVTIGQPASISCKSSNSLLDSDGRTYLNWLLQRPGQSPKRLIYLVSKIDSGVPDRFTGSGSVTDFTLKISRVESEDLGVYYCWYGTHFPHTFGAGTKLEVKR | 4.05 nM | 0.000171 s⁻¹ | 42300 M⁻¹ s⁻¹ | –
Mutation 1-28 (antibody, V domains shown) VH: QVQLQQSGAELVRPGTSVKISCKASGYTFTDYWIGWVKQRPGHGLEWIGDMFPGDIYINYNEKFKGKATLTADTSSNTAYMQLSSLTSEDSAVYFCTNFITLGGIDYWGRGTSLTVSS VL: DVVMTQTPLTLSVTIGQPASISCKSSNSLLDSDGRTYLNWLLQRPGQSPKRLIYLVSKIDSGVPDRFTGSGSVTDFTLKISRVESEDLGVYYCWYGTHFPHTFGAGTKLEVKR | 6.59 nM | 0.000337 s⁻¹ | 51200 M⁻¹ s⁻¹ | –
Mutation 1-46 (antibody, V domains shown) VH: QVQLQQSGAELVRPGTSVKISCKASGYTFTEYWIGWVKQRPGHGLEWIGDMFPGDIYINYNEKFKGKATLTADTSSNTAYMQLSSLTSEDSAVYFCTNFITLGGIDYWGRGTSLTVSS VL: DVVMTQTPLTLSVTIGQPASISCKSSNSLLDSDGRTYLNWLLQRPGQSPKRLIYLVSKVDSGVPDRFTGSGSVTDFTLKISRVESEDLGVYYCWYGTHFPHTFGAGTKLEVKR | 8 nM | 0.000479 s⁻¹ | 59900 M⁻¹ s⁻¹ | –
WT 1-1 (antibody, V domains shown) VH: QVQLQQSGAELVRPGTSVKISCKASGYSFTEYWIGWVKQRPGHGLEWIGDMVPGDLYINYNEKFKGKATLTADTSSNTAYMQLSSLTSEDSAVYFCTNFITVGGVDYWGRGTSLTVSS VL: DVVMTQTPLTLSVTIGQPASISCKSSQSLLESDGKTYLNWLLQRPGQSPKRLIYLVTKIDSGVPDRFTGSGSVTDFTLKISRVESEDLGVYYCWYGTHFAHTFGAGTKLEVKR | 12.8 nM | 5.86e-05 s⁻¹ | 4570 M⁻¹ s⁻¹ | –

Source: patent publication US20210301000A1
